Experimental findings from paper PMC12130304 are described below.

The target in this experiment is C-terminal, Twin-Strep-HA-tagged AVRA13-1 (Blumeria hordei). The experiment is described as follows: SEC + other: negative-stain TEM.

For the substance “N-terminal, GST-tagged MLA13^K98E/K100E (receptor)”, the stoichiometry N (in general, a count of units in the complex or per binding partner) was found to be 1.
